# Measured values: paper PMC11335232
# Target: T1, CTCF recombinant full-length (OriGene) (UniProt P49711)
# T1 sequence: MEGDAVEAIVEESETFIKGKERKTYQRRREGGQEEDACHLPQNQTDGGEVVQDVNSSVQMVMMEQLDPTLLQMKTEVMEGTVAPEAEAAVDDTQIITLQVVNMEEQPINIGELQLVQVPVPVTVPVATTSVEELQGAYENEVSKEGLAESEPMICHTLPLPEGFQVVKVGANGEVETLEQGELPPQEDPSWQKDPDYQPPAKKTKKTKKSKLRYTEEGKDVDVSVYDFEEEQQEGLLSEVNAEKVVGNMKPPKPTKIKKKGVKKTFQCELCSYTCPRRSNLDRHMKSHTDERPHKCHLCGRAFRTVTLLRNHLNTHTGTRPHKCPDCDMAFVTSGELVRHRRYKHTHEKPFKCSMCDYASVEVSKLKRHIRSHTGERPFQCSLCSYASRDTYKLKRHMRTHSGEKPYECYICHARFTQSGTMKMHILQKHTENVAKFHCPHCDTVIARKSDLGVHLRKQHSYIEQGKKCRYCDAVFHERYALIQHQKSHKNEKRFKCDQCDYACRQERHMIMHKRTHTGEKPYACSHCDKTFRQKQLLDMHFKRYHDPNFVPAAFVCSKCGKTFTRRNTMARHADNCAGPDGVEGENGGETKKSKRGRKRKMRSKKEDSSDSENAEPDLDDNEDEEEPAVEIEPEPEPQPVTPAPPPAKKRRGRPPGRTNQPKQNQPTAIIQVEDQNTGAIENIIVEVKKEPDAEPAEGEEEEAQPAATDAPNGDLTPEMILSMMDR
# Experiment: EMSA, competition
# Conditions: LightShift Chemiluminescent RNA EMSA Kit (20158) and Pierce Magnetic RNA-Protein Pull-down Kit (20164) protocols; buffer, salt, pH and temperature not stated
sequence,measurement,value
TTTACAGCGGTGAGGACCACCAAGGGGAGCTAAAATTCGAATGTAGGGAACAGACGATTAACAAGTTAGTTTCAGAATGAAAGACTCGAGTGTAAGAATTCAATGGGATAATTCCTGTAAAGCGTTTAGTACAGTAAAGAGCGAAGGGAAATTCTGAATAAAAGGCAGACACTATTTTAGGATTTGGCCTTCCCCG (double strand) [RAB5A-set3 promoter DNA probe (196 bp)],binding,binds
